Measured values from ChEMBL document CHEMBL1137666, “Biochemical Characterization of SFC-1, a class A carbapenem-hydrolyzing beta-lactamase” (Antimicrob Agents Chemother, 2007).

Columns and labels:
[1] = substrate: CO[C@@]1(NC(=O)Cc2cccs2)C(=O)N2C(C(=O)O)=C(COC(N)=O)CS[C@@H]21; settings: Enterobacter cloacae
Description: (§3) Ratio of Kcat to Km for Enterobacter cloacae IMI1 beta lactamase Escherichia coli DH5alpha by SDS-PAGE

[2] = substrate: CC(C)(O/N=C(\C(=O)N[C@@H]1C(=O)N2C(C(=O)[O-])=C(C[n+]3ccccc3)CS[C@H]12)c1csc(N)n1)C(=O)O; settings: Enterobacter cloacae
Description: as §3

[3] = substrate: CCN1CCN(C(=O)N[C@@H](C(=O)N[C@@H]2C(=O)N3[C@@H]2SC(C)(C)[C@@H]3C(=O)O)c2ccccc2)C(=O)C1=O; settings: Enterobacter cloacae
Description: as §3

[4] = substrate: C[C@@H](O)[C@H]1C(=O)N2C(C(=O)O)=C(SCCNC=N)C[C@H]12; settings: Enterobacter cloacae
Description: as §3

[5] = substrate: CC(=O)OCC1=C(C(=O)O)N2C(=O)[C@@H](NC(=O)Cc3cccs3)[C@H]2SC1; settings: Enterobacter cloacae
Description: as §3

[6] = substrate: C[C@H]1[C@H](NC(=O)/C(=N\OC(C)(C)C(=O)O)c2csc(N)n2)C(=O)N1S(=O)(=O)O; settings: Enterobacter cloacae
Description: as §3

[7] = substrate: CC1(C)S[C@@H]2[C@H](NC(=O)[C@H](N)c3ccccc3)C(=O)N2[C@H]1C(=O)O; settings: Enterobacter cloacae
Description: as §3

[8] = substrate: CO/N=C(\C(=O)N[C@@H]1C(=O)N2C(C(=O)O)=C(COC(C)=O)CS[C@H]12)c1csc(N)n1; settings: Enterobacter cloacae
Description: as §3

[9] = substrate: C[C@@H](O)[C@H]1C(=O)N2C(C(=O)O)=C(S[C@@H]3CN[C@H](C(=O)N(C)C)C3)[C@H](C)[C@H]12; settings: Enterobacter cloacae
Description: as §3

[10] = substrate: CO[C@@]1(NC(=O)Cc2cccs2)C(=O)N2C(C(=O)O)=C(COC(N)=O)CS[C@@H]21; settings: Enterobacter cloacae; remark: listed apart in the source
Description: (§4) Activity of Enterobacter cloacae IMI1 beta lactamase expressed in Escherichia coli DH5alpha by SDS-PAGE

[11] = substrate: CC(C)(O/N=C(\C(=O)N[C@@H]1C(=O)N2C(C(=O)[O-])=C(C[n+]3ccccc3)CS[C@H]12)c1csc(N)n1)C(=O)O; settings: Enterobacter cloacae; remark: listed apart in the source
Description: as §4

[12] = substrate: CCN1CCN(C(=O)N[C@@H](C(=O)N[C@@H]2C(=O)N3[C@@H]2SC(C)(C)[C@@H]3C(=O)O)c2ccccc2)C(=O)C1=O; settings: Enterobacter cloacae; remark: listed apart in the source
Description: as §4

[13] = substrate: C[C@@H](O)[C@H]1C(=O)N2C(C(=O)O)=C(SCCNC=N)C[C@H]12; settings: Enterobacter cloacae; remark: listed apart in the source
Description: as §4

[14] = substrate: CC(=O)OCC1=C(C(=O)O)N2C(=O)[C@@H](NC(=O)Cc3cccs3)[C@H]2SC1; settings: Enterobacter cloacae; remark: listed apart in the source
Description: as §4

[15] = substrate: C[C@H]1[C@H](NC(=O)/C(=N\OC(C)(C)C(=O)O)c2csc(N)n2)C(=O)N1S(=O)(=O)O; settings: Enterobacter cloacae; remark: listed apart in the source
Description: as §4

[16] = substrate: CC1(C)S[C@@H]2[C@H](NC(=O)[C@H](N)c3ccccc3)C(=O)N2[C@H]1C(=O)O; settings: Enterobacter cloacae; remark: listed apart in the source
Description: as §4

[17] = substrate: CO/N=C(\C(=O)N[C@@H]1C(=O)N2C(C(=O)O)=C(COC(C)=O)CS[C@H]12)c1csc(N)n1; settings: Enterobacter cloacae; remark: listed apart in the source
Description: as §4

[18] = substrate: C[C@@H](O)[C@H]1C(=O)N2C(C(=O)O)=C(S[C@@H]3CN[C@H](C(=O)N(C)C)C3)[C@H](C)[C@H]12; settings: Enterobacter cloacae; remark: listed apart in the source
Description: as §4

[19] = substrate: CO[C@@]1(NC(=O)Cc2cccs2)C(=O)N2C(C(=O)O)=C(COC(N)=O)CS[C@@H]21; assay: (§1) Activity of Serratia fonticola UTAD54 SFC1 beta lactamase expressed in Escherichia coli BL21(DE3) by SDS-PAGE
[20] = substrate: CC(C)(O/N=C(\C(=O)N[C@@H]1C(=O)N2C(C(=O)[O-])=C(C[n+]3ccccc3)CS[C@H]12)c1csc(N)n1)C(=O)O; assay: as §1
[21] = substrate: CCN1CCN(C(=O)N[C@@H](C(=O)N[C@@H]2C(=O)N3[C@@H]2SC(C)(C)[C@@H]3C(=O)O)c2ccccc2)C(=O)C1=O; assay: as §1
[22] = substrate: C[C@@H](O)[C@H]1C(=O)N2C(C(=O)O)=C(SCCNC=N)C[C@H]12; assay: as §1
[23] = substrate: CC(=O)OCC1=C(C(=O)O)N2C(=O)[C@@H](NC(=O)Cc3cccs3)[C@H]2SC1; assay: as §1
[24] = substrate: C[C@H]1[C@H](NC(=O)/C(=N\OC(C)(C)C(=O)O)c2csc(N)n2)C(=O)N1S(=O)(=O)O; assay: as §1
[25] = substrate: CC1(C)S[C@@H]2[C@H](NC(=O)[C@H](N)c3ccccc3)C(=O)N2[C@H]1C(=O)O; assay: as §1
[26] = substrate: CO/N=C(\C(=O)N[C@@H]1C(=O)N2C(C(=O)O)=C(COC(C)=O)CS[C@H]12)c1csc(N)n1; assay: as §1
[27] = substrate: C[C@@H](O)[C@H]1C(=O)N2C(C(=O)O)=C(S[C@@H]3CN[C@H](C(=O)N(C)C)C3)[C@H](C)[C@H]12; assay: as §1
[28] = substrate: CO[C@@]1(NC(=O)Cc2cccs2)C(=O)N2C(C(=O)O)=C(COC(N)=O)CS[C@@H]21; assay: (§2) Ratio of Kcat to Km for Serratia fonticola UTAD54 SFC1 beta lactamase expressed in Escherichia coli BL21(DE3) by SDS-PAGE
[29] = substrate: CC(C)(O/N=C(\C(=O)N[C@@H]1C(=O)N2C(C(=O)[O-])=C(C[n+]3ccccc3)CS[C@H]12)c1csc(N)n1)C(=O)O; assay: as §2
[30] = substrate: CCN1CCN(C(=O)N[C@@H](C(=O)N[C@@H]2C(=O)N3[C@@H]2SC(C)(C)[C@@H]3C(=O)O)c2ccccc2)C(=O)C1=O; assay: as §2
[31] = substrate: C[C@@H](O)[C@H]1C(=O)N2C(C(=O)O)=C(SCCNC=N)C[C@H]12; assay: as §2
[32] = substrate: CC(=O)OCC1=C(C(=O)O)N2C(=O)[C@@H](NC(=O)Cc3cccs3)[C@H]2SC1; assay: as §2
[33] = substrate: C[C@H]1[C@H](NC(=O)/C(=N\OC(C)(C)C(=O)O)c2csc(N)n2)C(=O)N1S(=O)(=O)O; assay: as §2
[34] = substrate: CC1(C)S[C@@H]2[C@H](NC(=O)[C@H](N)c3ccccc3)C(=O)N2[C@H]1C(=O)O; assay: as §2
[35] = substrate: CO/N=C(\C(=O)N[C@@H]1C(=O)N2C(C(=O)O)=C(COC(C)=O)CS[C@H]12)c1csc(N)n1; assay: as §2
[36] = substrate: C[C@@H](O)[C@H]1C(=O)N2C(C(=O)O)=C(S[C@@H]3CN[C@H](C(=O)N(C)C)C3)[C@H](C)[C@H]12; assay: as §2

B1: IMI-1 (Enterobacter cloacae), Q46991 (protein)
chain: MSLNVKPSRIAILFSSCLVSISFFSQANTKGIDEIKDLETDFNGRIGVYALDTGSGKSFSYKANERFPLCSSFKGFLAAAVLKGSQDNQLNLNQIVNYNTRSLEFHSPITTKYKDNGMSLGDMAAAALQYSDNGATNIILERYIGGPEGMTKFMRSIGDKDFRLDRWELDLNTAIPGDERDTSTPAAVAKSLKTLALGNILNEREKETYQTWLKGNTTGAARIRASVPSDWVVGDKTGSCGAYGTANDYAVVWPKNRAPLIISVYTTKNEKEAKHEDKVIAEASRIAIDNLK
B1 showed a kcat/Km [1] of 6700 M⁻¹ s⁻¹, a kcat/Km [2] of 24 M⁻¹ s⁻¹ and a kcat/Km [3] of 470000 M⁻¹ s⁻¹. It also gave a kcat/Km [4] of 520000 M⁻¹ s⁻¹, a kcat/Km [5] of 920000 M⁻¹ s⁻¹ and a kcat/Km [6] of 550000 M⁻¹ s⁻¹. It also gave a kcat/Km [7] of 240000 M⁻¹ s⁻¹, a kcat/Km [8] of 18000 M⁻¹ s⁻¹ and a kcat/Km [9] of 380000 M⁻¹ s⁻¹. For the same protein, the Km [10] was 45 µM, the kcat [10] was 0.3 s⁻¹ and the Km [11] was 270 µM. For the same protein, the kcat [11] was 0.0068 s⁻¹, the Km [12] was 13 µM and the kcat [12] was 6.1 s⁻¹. It also gave a Km [13] of 170 µM, a kcat [13] of 89 s⁻¹ and a Km [14] of 130 µM. It also gave a kcat [14] of 120 s⁻¹, a Km [15] of 93 µM and a kcat [15] of 51 s⁻¹. For the same protein, the Km [16] was 780 µM, the kcat [16] was 190 s⁻¹ and the Km [17] was 190 µM. It also gave a kcat [17] of 3.4 s⁻¹, a Km [18] of 26 µM and a kcat [18] of 10 s⁻¹.

B2: Carbapenem-hydrolizing beta-lactamase SFC-1 (Serratia fonticola), Q6JP75 (protein)
chain: MSRTGRLSVFFSAIFPLLTLTNMAEAASQPPQVTVDKLKRLENDFGGRIGVYAIDTGSNKTFGYRANERFPLCSSFKGFLAAAVLSKSQQQEGLLNQRIRYDNRVMEPHSPVTEKQITTGMTVAELSAATLQYSDNGAANLLLEKLIGGPEGMTSFMRSIGDNVFRLDRWELELNSAIPGDDRDTSTPKAVAESMQKLAFGNVLGLTERHQLMDWFKGNTTGGARIRASVPANWVVGDKTGTCGVYGTANDYAVIWPVGHAPIVLAVYTSKPDKNSKHSDAVIADASRIVLESFNIDALRMATGKSIGF
Protein B2 has a Km [19] of 77 µM, a kcat [19] of 4.2 s⁻¹ and a Km [20] of 52 µM. For the same protein, the kcat [20] was 2.1 s⁻¹, the Km [21] was 38 µM and the kcat [21] was 44.7 s⁻¹. It also gave a Km [22] of 82 µM, a kcat [22] of 54 s⁻¹ and a Km [23] of 129 µM. For the same protein, the kcat [23] was 280 s⁻¹, the Km [24] was 484 µM and the kcat [24] was 162 s⁻¹. It also gave a Km [25] of 176 µM, a kcat [25] of 155 s⁻¹ and a Km [26] of 89 µM. For the same protein, the kcat [26] was 8.3 s⁻¹, the Km [27] was 26 µM and the kcat [27] was 6.5 s⁻¹. For the same protein, the kcat/Km [28] was 54500 M⁻¹ s⁻¹, the kcat/Km [29] was 40400 M⁻¹ s⁻¹ and the kcat/Km [30] was 1.19e+06 M⁻¹ s⁻¹. The kcat/Km [31] was 659000 M⁻¹ s⁻¹, the kcat/Km [32] was 2.17e+06 M⁻¹ s⁻¹ and the kcat/Km [33] was 335000 M⁻¹ s⁻¹. The kcat/Km [34] was 881000 M⁻¹ s⁻¹, the kcat/Km [35] was 93300 M⁻¹ s⁻¹ and the kcat/Km [36] was 250000 M⁻¹ s⁻¹.
